B1: GST-VP16-TAD (Herpes simplex virus VP16 transcription activation domain, both subdomains, residues 427-485) (domain or fragment)
chain: DGEDVAMAHADALDDFDLDMLGDGDSPGPGFTPHDSAPYGALDMADFEFEQMFTDALGI
notes: source: E. coli BL21 pLysS, purified (glutathione-sepharose 4B)
B2: Arabidopsis thaliana Med25 ACtivator Interaction Domain (aMed25-ACID), Med25_(551-680) (domain or fragment, UniProt Q7XYY2 551-680, looked up)
chain: TSQSKYVKVWEGNLSGQRQGQPVLITRLEGYRSASASDSLAANWPPTMQIVRLISQDHMNNKQYVGKADFLVFRAMSQHGFLGQLQDKKLCAVIQLPSQTLLLSVSDKACRLIGMLFPGDMVVFKPQIPN
notes: source: 15N-labelled in M9 medium for NMR
B3: 6 x his-tagged Dreb2a_(168-335) (Dehydration responsive element binding protein 2A, Med25-binding domain 168-253 and activation domain 254-335) (domain or fragment, Arabidopsis thaliana, UniProt O82132 168-335, looked up)
chain: DCESKPFSGGVEPMYCLENGAEEMKRGVKADKHWLSEFEHNYWSDILKEKEKQKEQGIVETCQQQQQDSLSVADYGWPNDVDQSHLDSSDMFDVDELLRDLNGDDVFAGLNQDRYPGNSVANGSYRPESQQSGFDPLQSLNYGIPPFQLEGKDGNGFFDDLSYLDLEN
B4: GST-VP16-TADn (Herpes simplex virus VP16 N-terminal transcription activation subdomain, residues 412-452) (domain or fragment)
chain: TAPPTDVSLGDELHLDGEDVAMAHADALDDFDLDMLGDGDS
notes: as for B1

Common to all, as to details: both partners purified
Assay [1] deals with B2. The assay is described as follows: SPR. (In SPR one partner is held on a chip, and binding of the other changes the refractive index at the surface.)
The target of assay [2] is T1, human Med25 ACtivator Interaction Domain (hMed25-ACID), 6 x his-tagged human Med25_(394-543) (human, UniProt Q71SY5 394-543).
T1 construct: source: 15N-labelled in M9 medium for NMR
T1 sequence (looked up): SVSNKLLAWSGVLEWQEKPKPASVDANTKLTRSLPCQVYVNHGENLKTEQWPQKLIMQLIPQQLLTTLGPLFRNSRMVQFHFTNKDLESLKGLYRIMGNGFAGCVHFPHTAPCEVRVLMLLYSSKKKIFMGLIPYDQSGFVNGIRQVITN
Kind of assay: SPR.

The target in assay [3] is B3. The assay is described as follows: ITC. In general terms: In ITC the heat of successive injections is recorded.
Assay [4] deals with B2. The assay is described as follows: ITC.

What is called Kd is the constant that tells how readily two partners part at equilibrium. Regarding B1, the equilibrium dissociation constant (Kd) in assay [1] stood at 1800 nM; in assay [2], 2800 nM.
On to B2, for which, in assay [3], the Ka worked out at 328000 M⁻¹ and the Kd came to 3000 nM.
In assay [4], B3 yielded a dH of -21.9 kcal/mol.
Take B4: the values for the dissociation constant (Kd) in assay [1] and in assay [2] were 2400 nM and 5400 nM, respectively.

These data come from article PMC4038590 (PLoS ONE, 2014).
